Earlier results on 1 substance are cited in publication PMC4828448.

The target in this series is nisin (Lactococcus lactis) (UniProt P13068).
Chain of UniProt P13068 (P13068 24-57): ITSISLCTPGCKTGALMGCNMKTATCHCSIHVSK

In general, Kd refers to the constant that tells how readily two partners part at equilibrium. With NisI (from UniProt P42708), the Kd is 1000 nM.
